Where “and” joins values, the source holds several entries; their conditions need not be identical. Equal entries are not always repeated. Values belong to the binder of their own block, whether it stands above or below them.
Key:
hDPEP1-His = biological target: T1, hDPEP1-His (human, UniProt P16444 17-385, limits assumed); experiment: SPR, BIAcore 2000, antibody captured with anti-human capture kit
T1 construct: Neither the origin nor the limits of this protein are described; not shown: histidine tag
T1 sequence (looked up): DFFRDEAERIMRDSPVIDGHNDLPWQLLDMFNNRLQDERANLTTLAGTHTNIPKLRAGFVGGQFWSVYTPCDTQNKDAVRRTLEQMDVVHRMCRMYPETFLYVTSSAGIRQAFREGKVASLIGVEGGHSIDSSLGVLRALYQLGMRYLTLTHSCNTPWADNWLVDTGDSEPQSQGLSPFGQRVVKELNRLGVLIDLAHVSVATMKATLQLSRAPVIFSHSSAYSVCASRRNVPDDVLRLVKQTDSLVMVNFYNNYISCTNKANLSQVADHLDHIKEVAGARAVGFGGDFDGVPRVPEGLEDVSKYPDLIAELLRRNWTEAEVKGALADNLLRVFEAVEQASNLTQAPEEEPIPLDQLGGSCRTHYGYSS

[1] = biological target: T2, rat DPEP3 ECD with histidine tag (rat, UniProt Q5U2X4 36-459, limits assumed); experiment: as above
T2 construct: also called rDPEP3-His; ratDPEP3-His; not shown: histidine tag
T2 sequence: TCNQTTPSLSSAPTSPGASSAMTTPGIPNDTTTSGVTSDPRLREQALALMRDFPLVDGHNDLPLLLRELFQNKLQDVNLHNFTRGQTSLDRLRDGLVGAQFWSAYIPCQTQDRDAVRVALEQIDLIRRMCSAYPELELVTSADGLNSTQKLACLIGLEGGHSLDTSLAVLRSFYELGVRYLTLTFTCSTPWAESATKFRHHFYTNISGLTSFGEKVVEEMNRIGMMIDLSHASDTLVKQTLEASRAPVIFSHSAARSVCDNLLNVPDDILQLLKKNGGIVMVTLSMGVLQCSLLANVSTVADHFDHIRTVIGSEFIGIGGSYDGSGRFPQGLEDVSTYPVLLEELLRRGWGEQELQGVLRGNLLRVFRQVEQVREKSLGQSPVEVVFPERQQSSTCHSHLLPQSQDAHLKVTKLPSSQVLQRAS

hDPEP3-ECD-His = biological target: T3, hDPEP3-ECD-His (human, UniProt Q9H4B8 36-463); experiment: BLI ForteBio RED, 200 nM hDPEP3-His, estimated grade
T3 construct: also called hDPEP3-His; monomeric hDPEP3-His antigen; not shown: histidine tag
T3 sequence: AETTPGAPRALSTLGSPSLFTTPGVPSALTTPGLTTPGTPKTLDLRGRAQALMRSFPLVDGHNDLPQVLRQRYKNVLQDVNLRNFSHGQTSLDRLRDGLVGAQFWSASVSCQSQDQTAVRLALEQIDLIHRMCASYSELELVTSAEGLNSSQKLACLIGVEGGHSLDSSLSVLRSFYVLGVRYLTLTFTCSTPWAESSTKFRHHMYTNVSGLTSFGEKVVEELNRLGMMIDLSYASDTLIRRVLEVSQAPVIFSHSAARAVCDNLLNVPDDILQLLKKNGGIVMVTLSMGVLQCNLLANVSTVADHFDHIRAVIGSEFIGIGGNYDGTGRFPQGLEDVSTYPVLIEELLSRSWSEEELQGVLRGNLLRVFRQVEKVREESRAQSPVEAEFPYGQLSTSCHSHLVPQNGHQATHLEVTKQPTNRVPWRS
Outline: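 Antibodies were captured on anti-mouse Fc biosensors to 0.3-1 units, then exposed to hDPEP3-His for a 4 min association and a 3 min dissociation at 1000 rpm. A control mouse IgG response was subtracted, and KD was estimated qualitatively from the curves. Sensors were regenerated with 10 mM glycine, pH 1.7.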

[2] = biological target: T4, hDPEP2 ECD with histidine tag (human, UniProt Q9H4A9 33-463); experiment: ELISA, coated antigen, antibody 1 ug/mL
T4 construct: also called hDPEP2-His; not shown: histidine tag
T4 sequence (Q9H4A9 33-463): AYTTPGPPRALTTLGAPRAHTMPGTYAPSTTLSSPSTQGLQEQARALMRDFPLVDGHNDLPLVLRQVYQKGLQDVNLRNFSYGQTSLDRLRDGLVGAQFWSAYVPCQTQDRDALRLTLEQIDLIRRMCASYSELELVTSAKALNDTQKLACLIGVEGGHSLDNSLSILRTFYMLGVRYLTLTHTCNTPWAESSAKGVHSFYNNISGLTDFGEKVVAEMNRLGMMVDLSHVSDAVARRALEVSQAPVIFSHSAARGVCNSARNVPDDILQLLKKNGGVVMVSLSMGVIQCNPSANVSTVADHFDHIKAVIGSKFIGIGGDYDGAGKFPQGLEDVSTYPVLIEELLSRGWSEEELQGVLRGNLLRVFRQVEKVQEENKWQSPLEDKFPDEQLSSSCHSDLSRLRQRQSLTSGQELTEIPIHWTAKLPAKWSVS
Experimental: The anti-DPEP3 antibodies were screened by ELISA for cross-reactivity with mouse, rat and cynomolgus DPEP3 and for cross reactivity to hDPEP2, the closest DPEP3 family member. ELISA was conducted as follows. Plates were coated with purified mouse, rat or cynomolgus DPEP3-His or hDPEP2-His at 0.3 μg/mL in 0.2 M carbonate-bicarbonate buffer, pH 9.4 overnight at 4° C. The protein solution was removed and the wells were blocked with 1% (w/v) BSA in PBS (PBSA), 100 μL/well for 1 hour at 37° C. Anti-DPEP3 antibody or a mouse isotype control antibody was then added at 1 μg/mL in 50 μL PBSA for 1 hour at room temperature. After washing with water, 50 μL/well HRP-labeled goat anti-mouse IgG antibody diluted 1:10,000 in PBSA was added for 30 min at room temperature. The plates were washed and developed by the addition of 40 μL/well of the TMB substrate solution (Thermo Scientific) at room temperature. An equal volume of 0.2 M H₂SO₄ was added to stop substrate development. The samples were then analyzed by spectrophotometer at OD 450. […] The cross reactivity results for exemplary DPEP3-specific antibodies can be seen in FIG. 4.

[3] = biological target: T2, rat DPEP3 ECD with histidine tag; experiment: ELISA, coated antigen
mDPEP3 = biological target: T5, mDPEP3 (limits assumed); experiment: ELISA, coated antigen
T5 construct: also called mouse DPEP3-His; mouse DPEP3 ECD with histidine tag
T5 single chain: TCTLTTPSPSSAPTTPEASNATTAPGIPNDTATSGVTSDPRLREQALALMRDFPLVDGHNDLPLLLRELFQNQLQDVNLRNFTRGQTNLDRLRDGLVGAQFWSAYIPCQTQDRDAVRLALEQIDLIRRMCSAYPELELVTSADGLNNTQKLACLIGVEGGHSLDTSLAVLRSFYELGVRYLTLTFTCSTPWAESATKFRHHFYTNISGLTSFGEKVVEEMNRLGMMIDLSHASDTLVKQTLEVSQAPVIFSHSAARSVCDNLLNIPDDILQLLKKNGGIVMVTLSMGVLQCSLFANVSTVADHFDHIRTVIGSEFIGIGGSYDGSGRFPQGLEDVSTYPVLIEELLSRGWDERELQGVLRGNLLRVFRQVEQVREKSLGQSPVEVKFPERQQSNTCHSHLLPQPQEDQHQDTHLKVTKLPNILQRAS

cDPEP3 = biological target: T6, cDPEP3 (Macaca fascicularis, UniProt Q4R7M2); experiment: ELISA, coated antigen
T6 construct: extracellular domain; also called cynomolgus DPEP3-His; cynomolgus DPEP3 ECD with histidine tag
T6 sequence (single chain, looked up): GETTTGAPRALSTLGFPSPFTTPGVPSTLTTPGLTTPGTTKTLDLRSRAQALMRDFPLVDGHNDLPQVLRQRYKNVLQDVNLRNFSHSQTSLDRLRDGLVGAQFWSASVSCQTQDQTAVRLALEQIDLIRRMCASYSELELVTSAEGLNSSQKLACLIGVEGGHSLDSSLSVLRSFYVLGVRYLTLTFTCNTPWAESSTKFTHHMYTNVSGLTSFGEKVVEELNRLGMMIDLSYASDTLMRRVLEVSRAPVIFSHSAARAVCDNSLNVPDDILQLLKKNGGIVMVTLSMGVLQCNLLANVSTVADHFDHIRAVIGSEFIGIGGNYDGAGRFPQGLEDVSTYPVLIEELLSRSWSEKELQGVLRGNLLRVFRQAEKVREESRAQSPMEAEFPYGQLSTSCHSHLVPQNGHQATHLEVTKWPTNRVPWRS

[4] = biological target: T4, hDPEP2 ECD with histidine tag; experiment: ELISA, coated antigen
[5] = biological target: T7, human DPEP3 (hDPEP3) protein on the cell surface (human, UniProt Q9H4B8 36-463, GPI anchor at the C-terminus after removal of the final 25 amino acids); experiment: flow cytometry, HEK-293T cells overexpressing hDPEP3
T7 construct: The assay field says which
T7 sequence: T3 sequence
Experimental: The isolated cells were incubated for 30 mins. with anti-DPEP3 antibodies and washed twice in PBS/2% FCS. The cells were incubated for 15 mins. with 50 μL per sample AlexaFluor-647 labeled goat-anti-mouse IgG, Fc fragment specific secondary antibody diluted 1:200 in PBS/2% FCS, washed twice with PBS/2% FCS and re-suspended in PBS/2% FCS with DAPI ([…]). The cells were analyzed on a BD FACS Canto II flow cytometer with anti-DPEP3 antibodies.

B1: hSC34.11 humanized anti-DPEP3 antibody (antibody, human IgG1, kappa, V domains shown)
VH: EVQLVQSGAEVKKPGESLKISCKGSGYSFTNYWMIWVRQMPGKGLEWMGYIDPTTDYTAYNQKFKDQVTISADKSISTAYLQWSSLKASDTAMYYCARGGNVALDFWGQGTLVTVSS
VL: DIQMTQSPSSLSASVGDRVTITCKSSQSLLNSRTRKNYLAWYQQKPGKVPKLLIYWASTRESGVPSRFSGSGSGTDFTLTISSLQPEDVATYYCKESYNLWTFGGGTKVEIKR
notes: Human IgG1/kappa; The order is confirmed for hSC34.2 and hSC34.28
- binding result (hDPEP1-His): no binding
- binding result [1]: no binding

B2: hSC34.25 humanized anti-DPEP3 antibody (antibody, human IgG1, kappa, V domains shown)
VH: QVQLVQSGAEVKKPGASVKVSCKASGYTFTSYAISWVRQAPGQRLEWMGEIYPGSGETYYNEKFKGRVTITRDTSASTAYMELSSLRSEDTAVYYCARVNDYGSWFPYWGQGTLVTVSS
VL: DIVMTQSPDSLAVSLGERATINCKSSQSLLYSRYQKNYVAWYQQKPGQPPKLLIYWASTRESGVPDRFSGSGSGTDFTLTISSLQAEDVAVYYCQQYYRYPLTFGQGTKLEIKR
notes: Human IgG1/kappa
- binding result (hDPEP1-His): no binding
- binding result [1]: no binding

B3: SC34.46 (antibody, mouse IgG1, V domains shown)
VH: QVQLQQSGTELARPGTSVKLSCKASGYTFRSYAISWVRQRTGQGLEWIGEIYPGSDKTYYNESLKGKVTLTTDKCSSTANMQLTSLTSEDSAVYFCARVHDYGSWFPYWGQGTLVTVSA
VL: DIVMSQSPSSLAVSVGEKVTMSCKSSQSLLYSKYQKNFLAWYQQKPGQSPKLLIYWASTRESGVPDRFTGSGSGTDFTLTISNVKAEDLAVYYCQQYYRYPLTFGAGTTLELK
- Kd (hDPEP3-ECD-His): < 5 nM
- binding result [2]: binds

B5: hSC34.38 humanized anti-DPEP3 antibody (antibody, human IgG1, kappa, V domains shown)
VH: EVQLVQSGAEVKKPGESLKISCKGSGYSFTSYYMYWVRQMPGKGLEWMGEINPSNGGANFNERFKNQVTISADKSISTAYLQWSSLKASDTAMYYCTRGLLYYDYDRGFAYWGQGTLVTVSS
VL: DVVMTQSPLSLPVTLGQPASISCKSSQSLLYSNRRTYLNWFQQRPGQSPRRLIYLVSKLDSGVPDRFSGSGSGTDFTLKISRVEAEDVGVYYCVQGTHFPFTFGQGTKLEIKR
notes: Human IgG1/kappa
- binding result (hDPEP1-His): no binding
- binding result [1]: no binding

B6: hSC34.87 humanized anti-DPEP3 antibody (antibody, human IgG1, kappa, V domains shown)
VH: QVQLVQSGAEVKKPGASVKVSCKASGYTFTSYWMLWVRQAPGQRLEWMGYIDPRNGYTEYNQKFKDRVTITRDTSASTAYMELSSLRSEDTAVYYCARGGNVAMDYWGQGTLVTVSS
VL: DIVMTQSPDSLAVSLGERATINCKSSQSLLNSRTRKNYLAWYQQKPGQPPKLLIYWASTRESGVPDRFSGSGSGTDFTLTISSLQAEDVAVYYCKQSYNLWTFGGGTKLEIKR
notes: Human IgG1/kappa
- binding result (hDPEP1-His): no binding
- binding result [1]: no binding

Results, then the binder that gave them:

- binding result [3]: no binding (tested: 1 ug/mL)
- binding result (mDPEP3): no binding (tested: 1 ug/mL)
- binding result (cDPEP3): no binding (tested: 1 ug/mL)
- Kd (hDPEP3-ECD-His): ≥ 5 nM and ≤ 10 nM
- binding result [2]: binds
B4: SC34.11 (antibody, mouse IgG2a, V domains shown)
VH: QVQLQQSGAELAKPGASVKMSCKASGYTFTNYWMIWVKQRPGQGLEWIGYIDPTTDYTAYNQKFKDKATVTADKSSSTAYMQLNSLTSEDSAVYYCARGGNVALDFWGQGTSVTVSS
VL: DIVMSQSPSSLAVSAGEKVTMSCKSSQSLLNSRTRKNYLAWYQQKPGQSPKLLIYWASTRESGVPDRFTGSGSGTDFTLTISSVQAEDLAVYYCKESYNLWTFGGGTKLEIK

- binding result (hDPEP1-His): no binding
- binding result [1]: no binding
B7: hSC34.28 humanized anti-DPEP3 antibody (antibody, human IgG1, kappa, V domains shown)
VH: QVQLVQSGAEVKKPGSSVKVSCKASGGTFSSYWIEWVRQAPGQGLEWMGEILPGSGNTYYNERFKDRVTITADESTSTAYMELSSLRSEDTAVYYCARRAAAYYSNPEWFAYWGQGTLVTVSS
VL: EIVLTQSPATLSLSPGERATLSCTASSSVNSFYLHWYQQKPGLAPRLLIYSTSNLASGIPDRFSGSGSGTDFTLTISRLEPEDFAVYYCHQYHRSPYTFGQGTKLEIKR
notes: Human IgG1/kappa

- binding result [3]: no binding (tested: 1 ug/mL)
- binding result (mDPEP3): no binding (tested: 1 ug/mL)
- binding result [4]: no binding (tested: 1 ug/mL)
- binding result [5]: binds
B8: SC34.36 (antibody, mouse IgG2a, V domains shown)
VH: QVQLQQPGSVLVRPGASVKLSCKASGYTFTSYWMHWVKQRPGQGLEWIGEISPTSGRPNYNAKFKGKATLTVDTSSSTAYVDLSSLTSEDSAVYYCAKGEGYYGKAFDYWGQGTTLTVSS
VL: DIQMTQTTSSLSASLGDRVTISCRASQDISNYLNWYQQKPDGTVKLLIYYTSRLHSGVPSRFSGSGSGTDYSLTISNLEQEDIATYFCQQGNTLPWTFGGGTKLEIK

Source: US20170029530A1 (AbbVie / Abbott, published 2017)
